Tested on: MS2 coat protein
Assay: apparent KD of MS2 coat protein; designed switch direction (-1 OFF switch, 1 ON switch): -1; higher = weaker reporter binding
Summary of the method: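 An oligonucleotide input, 200 uM small-molecule ligand, or no input was present during titration of SNAP-549-labelled MS2 coat protein, which was doubled from 0.7 or 1.5 nM to 3 µM. Designed RNA switches had been transcribed on Illumina chips by stalled E. coli RNA polymerase. Apparent KD per design is the median over clusters of curves fitted to normalised cluster fluorescence.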

[1] = Eterna round: R95, input ligand: FMN 200 uM
[2] = Eterna round: R95, input ligand: microRNA oligo, concentration not stated
[3] = Eterna round: R95, input ligand: none
[4] = input ligand: microRNA oligo, concentration not stated

Sequence	apparent KD of MS2 coat protein (input ligand: FMN 200 uM) [nM]	apparent KD of MS2 coat protein (input ligand: none) [nM]	apparent KD of MS2 coat protein [1] [nM]	apparent KD of MS2 coat protein [2] [nM]	apparent KD of MS2 coat protein [3] [nM]	apparent KD of MS2 coat protein [4] [nM]
CGCUGGACAGGAUAUGUUCUUGGGCACUUGAGGAUCACCCAAGUCAUCAAGAAAACAGGCACAGAAGGGUUUAUGG [salish99_ex5_r4_020] (Eterna round: R97, puzzle: Exclusion 5)	32.1	24.1				
UACUAAAAGGAGGAUAUCGUAUCGGAAACGAUACGAGAAGGCUUAACAUGAGGAUCACCCAUGUUCUUCAAUAU [Mat - Exclusion 6 - Eli Mod - D92] (puzzle: Exclusion 6)			18.2	16	14.8	
ACAUGAGGAUCACCCAUGUCCGGCUGGUCUGUUUCGGUUGUCGAGGAUAUAGUUCGGUGUUCGCGCUAGAAGGUGGGAGCUGGC [Aenatbe mod 57] (Eterna round: R96, puzzle: Exclusion NG 3)	143	175				108
GUAGAGUAAGGAUAUCAUGAAUAGGAUAGAAUGGUUAGAAAUGAGAAGGUACAUGAGGAUCACCCAUGUAAUGU [Excluse me!!!! 12 - Jieux - Exclusion 4] (puzzle: Exclusion 4)			20.5	21.6	17.1	
AAGAAGAAGUAAGGAUAUGAAGAUUUGGUGGUGACAUGAGGAUCACCCAUGUGAAAACAAUAAGAUCAGAAGGUAUAAGAAGAA [AK ExNG2-3] (Eterna round: R96, puzzle: Exclusion NG 2)	522	405				434
AUGGUACAUGAGGAUCACCCAUGUUAGGAUAUCGCGUGAGGUAAAACUUACACACACACGAGAAGGGACGACAU (puzzle: Exclusion 1)				55.1		
AAAAAAAACAAGCUUAGGGACAUGAGGAUCACCCAUGUUCGUCUUAUAAAAAUAAAAAUAAAAAACAAAAAAUAAAA [Sensor V2: 53] (Eterna round: R96, puzzle: Sensor v2, turn-off variant)	22.5	24.1				128
GUAUAUAGUGUGAGGAUAUGCUGGUCCUUGGAUCAGCAGAAGGCACAUGAGGAUCACCCAUGUAGUUUAUUAUG [Mat - Exclusion 4 - JL Mod - D8] (puzzle: Brourd's mod of Exclusion 4)				20		
CUUAGUUGGUAAGGAUAUCCUACAUUGUUCUGGCCCGGGCAUGCUACAUGAGGAUCACCCAUGUGGGAGAAGGUGCGUCAUCGC [Design 18] (Eterna round: R96, puzzle: Exclusion NG 2)	57.4	53.6				45.1
UCGCCGCCCUUGGGCGGCGACAUGAGGAUCACCCAUGUCAAGCUUUUUGCUCGUUUUAUAGCCGGCCUUGGCCGGCA [Olib_3] (Eterna round: R97, puzzle: Sensor, turn-off variant 1)	27.9	29.4				
GGAUCAUGAGGAUAUCGAGGUUAGUACAUGAGGAUCACCCAUGUUAUCCAGGUCUCGUUUCGAGAAGGCAUGAUCC [LRO-Ex5-10] (puzzle: Exclusion 5)				21.2		
CUUAGACAUGAGGAUCACCCAUGUGAGGAUAUGAUGCGAAUAAAGAAAGAAGAAAGCAUCAGAAGGCACAUAUG (Eterna round: R96, puzzle: Exclusion 1)	382	125				94.1
UUAAUGUGAGGAUAUCAAGAGAGAAAGAGUAAUGGUAAAUAUGAGAAGGCACAUGAGGAUCACCCAUGUUCUUC [Mat - Exclusion 4 - Mod of JL - D60] (puzzle: Exclusion 4)				14.2		
AGAGUGCUGCGAGGAUAUACAUGAGGAUCACCCAUGUAAACCUGUGAGGCAAAGCCUCACAGGAUGUAGAAGGCGCAGUACUCA [Mat - Exclusion NG 2 - Mod of JL - D40] (Eterna round: R96, puzzle: Exclusion NG 2)	20	19.5				8.82
AGUGCGUAUGUGAGGAUAUGCUGGUCCUUGGAUCAGCAGAAGGCACAUGAGGAUCACCCAUGUGGUGUCGUACG [salish99_Bmod_Ex4_004] (puzzle: Brourd's mod of Exclusion 4)			245	51.8	60	
GAAAAGGUAGGAUAUACGAAAAAAAAGGGUUGAAAAAAAACACAUGAGGAUCACCCAUGUAGAAGGACCAAAAG [salish99_ex2_r3_080] (puzzle: Exclusion 2)			140	19.7	26	
UUUUAACAUGAGGAUCACCCAUGUCAGGAUAUGGUAUUUUUUUUUUUUUUUUUUUUUUCCAGAAGGGACAUUUU [My solution] (puzzle: Exclusion 1)			16.5	11.3	15.9	

Sequence	apparent KD of MS2 coat protein (input ligand: FMN 200 uM) [nM]	apparent KD of MS2 coat protein (input ligand: none) [nM]	apparent KD of MS2 coat protein [1] [nM]	apparent KD of MS2 coat protein [2] [nM]	apparent KD of MS2 coat protein [3] [nM]	apparent KD of MS2 coat protein [4] [nM]
ACAUGAGGAUCACCCAUGUAAUGAUGGGUACUAUAUUAUUCGUAGGAUAUCGUUGUUAGUUUGUUCGAGAAGGACGUUUGCCUU [JR_ExcNG3_Sub055] (Eterna round: R96, puzzle: Exclusion NG 3)						824
AAAAAACAUGAGGAUCACCCAUGUGAGGAUAUGCUAAAAAAAUCCGCAUGAAAAAAUAGCAGAAGGCACAUAAA [PK2] (Eterna round: R96, puzzle: Exclusion 1)	93.5	36.2				27.2
UUCGUGCAGCUUUGCUGUACGCGUACAUGAGGAUCACCCAUGUAGGAUAUGGUAGGCUUUGCUUACUAGAAGGAUAGUGUGAUC [JL EXNG3 1.30] (Eterna round: R96, puzzle: Exclusion NG 3)	137	88.7				123
AGCAUGGUAGGAUAUACGGAACAUUAGGGUUUGUUAUGUGGACAUGAGGAUCACCCAUGUAGAAGGGCCGUGCA [Mat - Exclusion 2 - Mod of JL - D80] (puzzle: Exclusion 2)				32.3		
CGGUGUAGAGGAUAUACGUGAAUUUUGUUAUAUAAUAAUUUACAUGAGGAUCACCCAUGUAGAAGGCUAUAGCG [JR_Ex2_Sub084] (Eterna round: R97, puzzle: Exclusion 2)	23.4	24.2				
AGCUGUGGCCAAGGAUAUCUAGCCUUAAAUACCGACGUAUAGUCGGACAUGAGGAUCACCCAUGUGGAGAAGGUGGUCUCAGCA [Eli eng2 - 044] (Eterna round: R96, puzzle: Exclusion NG 2)	82	74.3				53
CCGAAGUCCUGCGGAGUUCACAUGAGGAUCACCCAUGUAGGCGAGGAUAUUUAUGAUACAUGAGUAAAGAAGGCGUCUGGUAAA [Eternabot solution 26] (Eterna round: R96, puzzle: Exclusion NG 3)	40.7	29.1				18.2
UCCCGUCUAUGGAGAUUUUACAUGAGGAUCACCCAUGUUGGGACCGCUCUUUGCUUGUCUUCUCCUACUUCGUGUGU [mod-Gracier #4] (Eterna round: R97, puzzle: Sensor, turn-off variant 1)	82.7	87.2				
GUUAGUUAAGGAUAUACAGGGAGCCGCGGCGUCUCGCCGCAACAUGAGGAUCACCCAUGUAGAAGGUAGCCAUU [JL ViennaUCT Enbibi mod 1] (puzzle: Exclusion 2)				25.5		
UGUUGUUGCGUAGGAUAUUGCCAACAGGCAGUAGGAUAUGCGAAAGCAGAAGGACCGCCAACAGGCGAGAAGGACGGGACAACU [pwkr exNG2 2xF7 2xFMN.13] (Eterna round: R96, puzzle: Exclusion NG 2)	177	72.6				39.4
CUUUAGUGAGGAUAUCAGUAGUAAUACAAUAGUAUUACUACUGAGAAGGCACAUGAGGAUCACCCAUGUUUCUC [Mat - Exclusion 4 - Mod of Omei - D78] (puzzle: Exclusion 4)				28		
GAAAAGGUAGGAUAUACGAAAAAAAAGGGUAGAAAAAAAUCACAUGAGGAUCACCCAUGUAGAAGGACCAAAAG [salish99_ex2_r3_072] (puzzle: Exclusion 2)			62.3	25	28.3	
CUGUAACGAGCGUGAGCCUACAUGAGGAUCACCCAUGUGCUCGUCUUAUAACGUACUGUCACGUUAGUGAUAGUGCG [Sensor v3, turn-off variant 1 (MOD of Eli's v1-13 v.3)] (puzzle: Sensor v3, turn-off variant 1)			115	297	104	
CUUUAGUGAGGAUAUCAGUGGUAAUACAAUAGUAUUACUACUGAGAAGGCACAUGAGGAUCACCCAUGUUCCUC [Mat - Exclusion 4 - Mod of Omei - D84] (puzzle: Exclusion 4)				26.4		
AAAAUGGUCUAGGAUAUGACAAAUCUGAGCACGUCAGAAGGAGACACAUGAGGAUCACCCAUGUGGGUGCGAAA [Erteedza] (puzzle: Exclusion 6)			324	31.8	35.2	
CCUUAGCGAGGAUAUACAUGAGGAUCACCCAUGUGAUCCUAAGGCUGAUCAAGCCUAUGUAGAAGGCGCAAAUC [salish99_ex3_r4_003] (Eterna round: R97, puzzle: Exclusion 3)	180	442				
GAGGUACAUGAGGAUCACCCAUGUGAGGAUAUAGUGGAAGAUUGAGAGAGGUGGAGGACUAGAAGGCACAGUGG [JR_Exclu1_Sub039] (puzzle: Exclusion 1)				48.1		
